This note sets out measurements from PMC7568338 (Proceedings of the National Academy of Sciences of the …, 2020).

The data set concerns the molecule itself. Nature of the data set: SEC. For orientation: SEC sorts molecules by how far they enter the pores of the column.

B1: ^D645CClpA (enzyme, E. coli, UniProt P0ABH9 1-749, looked up)
chain: MLNQELELSLNMAFARAREHRHEFMTVEHLLLALLSNPSAREALEASSVDLVALRQELEAFIEQTTPVLPASEEERDTQPTLSFQRVLQRAVFHVQSSGRNEVTGANVLVAIFSEQESQAAYLLRKHEVSRLDVVNFISHGTRKDEPTQSSDPGSQPNSEEQAGGEERMENFTTNLNQLARVGGIDPLIGREKELERAIQVLSRRRKNNPLLVGESGVGKTAIAEGLAWRIVQGDVPEVMADSTIYSLDIGSLLAGTKYRGDFEKRFKALLKQLEQDTNSILFIDEIHTIIGAGAASGGQVDAANLIKPLLSSGKIRVIGSTTYQEFSNIFEKDRALARRFQKIDITEPSIEETVQIINGLKPKYEAHHDVRYTAKAVRAAVELAVKYINDRHLPDKAIDVIDEAGARARLMPVSKRKKTVNVADIESVVARIARIPEKSVSQSDRDTLKNLGDRLKMLVFGQDKAIEALTEAIKMARAGLGHEHKPVGSFLFAGPTGVGKTEVTVQLSKALGIELLRFDMSEYMERHTVSRLIGAPPGYVGFDQGGLLTDAVIKHPHAVLLLDEIEKAHPDVFNILLQVMDNGTLTDNNGRKADFRNVVLVMTTNAGVRETERKSIGLIHQDNSTDAMEEIKKIFTPEFRNRLCNIIWFDHLSTDVIHQVVDKFIVELQVQLDQKGVSLEVSQEARNWLAEKGYDRAMGARPMARVIQDNLKKPLANELLFGSLVDGGQVTVALDKEKNELTYGFQSA
B1: the binding result is “binds”.

B2: ^Q709CClpA (enzyme, E. coli, UniProt P0ABH9 1-749, looked up)
chain: MLNQELELSLNMAFARAREHRHEFMTVEHLLLALLSNPSAREALEASSVDLVALRQELEAFIEQTTPVLPASEEERDTQPTLSFQRVLQRAVFHVQSSGRNEVTGANVLVAIFSEQESQAAYLLRKHEVSRLDVVNFISHGTRKDEPTQSSDPGSQPNSEEQAGGEERMENFTTNLNQLARVGGIDPLIGREKELERAIQVLSRRRKNNPLLVGESGVGKTAIAEGLAWRIVQGDVPEVMADSTIYSLDIGSLLAGTKYRGDFEKRFKALLKQLEQDTNSILFIDEIHTIIGAGAASGGQVDAANLIKPLLSSGKIRVIGSTTYQEFSNIFEKDRALARRFQKIDITEPSIEETVQIINGLKPKYEAHHDVRYTAKAVRAAVELAVKYINDRHLPDKAIDVIDEAGARARLMPVSKRKKTVNVADIESVVARIARIPEKSVSQSDRDTLKNLGDRLKMLVFGQDKAIEALTEAIKMARAGLGHEHKPVGSFLFAGPTGVGKTEVTVQLSKALGIELLRFDMSEYMERHTVSRLIGAPPGYVGFDQGGLLTDAVIKHPHAVLLLDEIEKAHPDVFNILLQVMDNGTLTDNNGRKADFRNVVLVMTTNAGVRETERKSIGLIHQDNSTDAMEEIKKIFTPEFRNRLDNIIWFDHLSTDVIHQVVDKFIVELQVQLDQKGVSLEVSQEARNWLAEKGYDRAMGARPMARVICDNLKKPLANELLFGSLVDGGQVTVALDKEKNELTYGFQSA
For the protein B2, the binding result is “binds”.
